In patent publication US20220073581A1 (UCB, published 2022):
Each block holds one binder with its values, some of them ahead of it.

How the values were obtained:
[1] = molecular target: T1, IL-2-Rβ (IL-2 receptor β chain, R&D Systems) (UniProt P14784 27-239); assay: SPR (Biacore), fusion captured on anti-human F(ab)2, 100 nM IL-2-sRβ injected, with or without premixed 200 nM IL-15
T1 construct: also called IL-2-sRβ
T1 sequence (looked up): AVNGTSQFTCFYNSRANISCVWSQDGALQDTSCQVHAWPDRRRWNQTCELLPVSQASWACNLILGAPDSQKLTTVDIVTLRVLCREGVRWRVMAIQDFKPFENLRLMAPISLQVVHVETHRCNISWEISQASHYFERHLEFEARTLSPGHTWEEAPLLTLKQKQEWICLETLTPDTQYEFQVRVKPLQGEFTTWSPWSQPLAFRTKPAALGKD

[2] = molecular target: T2, Human serum albumin (HSA), Jackson ImmunoResearch catalog #009-000-051 (human, UniProt P02768 25-609); assay: SPR (Biacore), fusion captured from supernatant on anti-human F(ab)2, 1000 nM HSA injected
[3] = molecular target: T3, IL-15-Rα-hFc (R&D Systems) (UniProt Q13261 31-205); assay: SPR (Biacore), fusion captured from supernatant on anti-human F(ab)2, 100 nM IL-15-Rα injected
T3 construct: Bought reagent; not shown: human Fc (hFc)

[4] = molecular target: T1, IL-2-Rβ (IL-2 receptor β chain, R&D …); assay: SPR (Biacore), fusion captured from supernatant on anti-human F(ab)2, 100 nM IL-2-Rβ injected
[5] = molecular target: T1, IL-2-Rβ (IL-2 receptor β chain, R&D …); assay: SPR (Biacore), fusion captured on anti-human F(ab)2, 100 nM IL-2-sRβ injected, with or without premixed 200 nM IL-15; remark: listed apart in the source
IL-6 (R&D Systems) [6] = molecular target: T4, IL-6 (R&D Systems) (UniProt P05231 30-212, limits assumed); assay: SPR (Biacore), fusion captured on anti-human F(ab)2, IL-6 alone injected
IL-6 (R&D Systems) [7] = molecular target: T4, IL-6 (R&D Systems); assay: SPR (Biacore), fusion captured on anti-human F(ab)2, 100 nM IL-6 injected alone or with 1000 nM HSA
[8] = molecular target: T2, Human serum albumin (HSA), Jackson …; assay: SPR (Biacore), fusion captured on anti-human F(ab)2, 1000 nM HSA injected alone or with 100 nM G-CSF-Rα
[9] = molecular target: T5, GM-CSF receptor, cognate for the murine GM-CSF constructs (UniProt Q00941 30-327); assay: SPR (Biacore), Fab captured on anti-human F(ab)2, GM-CSF receptor injected
T5 construct: also called GM-CSF-Ra; cognate GM-CSF receptor
T5 sequence (looked up): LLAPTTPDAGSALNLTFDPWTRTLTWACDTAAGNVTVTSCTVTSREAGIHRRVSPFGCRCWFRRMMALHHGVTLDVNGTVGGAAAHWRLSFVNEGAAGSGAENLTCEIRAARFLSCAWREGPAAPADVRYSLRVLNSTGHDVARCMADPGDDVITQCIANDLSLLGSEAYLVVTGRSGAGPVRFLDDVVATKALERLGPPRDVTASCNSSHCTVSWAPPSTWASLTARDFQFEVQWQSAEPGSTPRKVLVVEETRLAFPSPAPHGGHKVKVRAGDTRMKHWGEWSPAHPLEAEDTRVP

[10] = molecular target: T1, IL-2-Rβ (IL-2 receptor β chain, R&D …); assay: SPR (Biacore), Fab captured on anti-human F(ab)2, IL-2-Rβ injected
[11] = molecular target: T6, GM-CSF receptor, cognate for the human GM-CSF constructs (GM-CSF-Ra, R&D Systems) (UniProt P15509 23-320); assay: SPR (Biacore), Fab captured on anti-human F(ab)2, GM-CSF receptor injected
T6 construct: also called cognate GM-CSF receptor
T6 sequence (looked up): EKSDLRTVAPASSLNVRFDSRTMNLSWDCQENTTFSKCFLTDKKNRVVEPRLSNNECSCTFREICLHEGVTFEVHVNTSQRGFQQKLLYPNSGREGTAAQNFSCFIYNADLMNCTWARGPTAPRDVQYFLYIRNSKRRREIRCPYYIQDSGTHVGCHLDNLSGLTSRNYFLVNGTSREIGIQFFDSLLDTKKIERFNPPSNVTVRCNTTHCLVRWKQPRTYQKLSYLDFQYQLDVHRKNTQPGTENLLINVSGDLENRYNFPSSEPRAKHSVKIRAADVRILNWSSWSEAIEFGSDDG

[12] = molecular target: T7, EPO-R (EPO receptor, R&D Systems) (UniProt P19235 25-250); assay: SPR (Biacore), Fab captured on anti-human F(ab)2, EPO-R injected
T7 sequence (looked up): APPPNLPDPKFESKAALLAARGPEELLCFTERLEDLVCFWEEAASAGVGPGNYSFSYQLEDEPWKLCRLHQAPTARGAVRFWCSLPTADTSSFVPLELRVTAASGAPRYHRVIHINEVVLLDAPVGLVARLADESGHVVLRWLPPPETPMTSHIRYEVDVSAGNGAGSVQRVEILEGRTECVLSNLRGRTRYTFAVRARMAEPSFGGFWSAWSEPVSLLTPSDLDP

[13] = molecular target: T1, IL-2-Rβ (IL-2 receptor β chain, R&D …); assay: SPR (Biacore), fusion captured on anti-human F(ab)2, 100 nM IL-2-sRβ injected, with or without premixed 200 nM IL-15; remark: listed apart in the source

- binding result (IL-6 (R&D Systems) [6]): no binding (tested: 100 nM)
B4: CA645/VHH6Fwk3 (CA645 Fab with camelid VHH6 inserted into framework 3 of the VH domain) (bispecific antibody)
heavy: EVQLLESGGGLVQPGGSLRLSCAVSGIDLSNYAINWVRQAPGKGLEWIGIIWASGTTFYATWAKGRFTISRDNSGGGGSGGGGSDVQFVESGGGSVHAGGSLRLNCATSGYIYSTYCMGWFRQAPGKEREGVAHIYTNSGRTYYADSVKGRFTISQDNAKNTVYLQMNSLKPEDTAIYYCAARPSIRCASFSATEYKDWGQGTQVTVSSGGGGSGGGGSKNTVYLQMNSLRAEDTAVYYCARTVPGYSTAPYFDLWGQGTLVTVSSASTKGPSVFPLAPSSKSTSGGTAALGCLVKDYFPEPVTVSWNSGALTSGVHTFPAVLQSSGLYSLSSVVTVPSSSLGTQTYICNVNHKPSNTKVDKKVEPKSC
light: DIQMTQSPSSVSASVGDRVTITCQSSPSVWSNFLSWYQQKPGKAPKLLIYEASKLTSGVPSRFSGSGSGTDFTLTISSLQPEDFATYYCGGGYSSISDTTFGGGTKVEIKRTVAAPSVFIFPPSDEQLKSGTASVVCLLNNFYPREAKVQWKVDNALQSGNSQESVTEQDSKDSTYSLSSTLTLSKADYEKHKVYACEVTHQGLSSPVTKSFNRGEC
notes: also called CA645/VHH6 antibody fusion protein

- binding result (IL-6 (R&D Systems) [7]): binds
B5: CA645/VHH15Fwk3 (CA645 Fab with anti-IL-6 camelid VHH15 inserted into framework 3 of the VH domain) (bispecific antibody)
heavy: EVQLLESGGGLVQPGGSLRLSCAVSGIDLSNYAINWVRQAPGKGLEWIGIIWASGTTFYATWAKGRFTISRDNSGGGGSGGGGSQVQLVESGGGSVQAGGSLRLSCVAASGYTGCTYDMRWYRQAPGKEREFVSGIDSDGRATYADSVKGRFTISQSNAKIAVYLQMDSLKLEDTAMYYCNLQCLRYPGEYYWGQGTQVTVSSGGGGSGGGGSKNTVYLQMNSLRAEDTAVYYCARTVPGYSTAPYFDLWGQGTLVTVSSASTKGPSVFPLAPSSKSTSGGTAALGCLVKDYFPEPVTVSWNSGALTSGVHTFPAVLQSSGLYSLSSVVTVPSSSLGTQTYICNVNHKPSNTKVDKKVEPKSC
light: B4 light
notes: also called CA645/VHH15 antibody fusion protein

- binding result [8]: binds
B6: CA645/G-CSFFwk3 (CA645 Fab with human G-CSF inserted into framework 3 of the VH domain) (Fab)
heavy: EVQLLESGGGLVQPGGSLRLSCAVSGIDLSNYAINWVRQAPGKGLEWIGIIWASGTTFYATWAKGRFTISRDNSGGGGSATPLGPASSLPQSFLLKCLEQVRKIQGDGAALQEKLVSECATYKLCHPEELVLLGHSLGIPWAPLSSCPSQALQLAGCLSQLHSGLFLYQGLLQALEGISPELGPTLDTLQLDVADFATTIWQQMEELGMAPALQPTQGAMPAFASAFQRRAGGVLVASHLQSFLEVSYRVLRHLAQPSGGGGKNTVYLQMNSLRAEDTAVYYCARTVPGYSTAPYFDLWGQGTLVTVSSASTKGPSVFPLAPSSKSTSGGTAALGCLVKDYFPEPVTVSWNSGALTSGVHTFPAVLQSSGLYSLSSVVTVPSSSLGTQTYICNVNHKPSNTKVDKKVEPKSC
light: B4 light
notes: also called CA645/G-CSF antibody fusion protein

- binding result [9]: no binding (tested: 100 nM)
- binding result [10]: no binding (tested: 100 nM)
- binding result [11]: no binding (tested: 100 nM)
- binding result [12]: no binding (tested: 50 nM)
B7: CA645 Fab (unmodified, wild type, anti-human serum albumin) (Fab, V domains shown)
VH: EVQLLESGGGLVQPGGSLRLSCAVSGIDLSNYAINWVRQAPGKGLEWIGIIWASGTTFYATWAKGRFTISRDNSKNTVYLQMNSLRAEDTAVYYCARTVPGYSTAPYFDLWGQGTLVTVSS
VL: DIQMTQSPSSVSASVGDRVTITCQSSPSVWSNFLSWYQQKPGKAPKLLIYEASKLTSGVPSRFSGSGSGTDFTLTISSLQPEDFATYYCGGGYSSISDTTFGGGTKVEIKR
notes: Control without insert polypeptide; also called unmodified CA645 Fab; wild type CA645 Fab

- binding result [13]: binds
B8: CA497/IL-15Fwk3 (anti-IL-17A CA497 Fab with human IL-15 inserted into framework 3 of the VH domain) (Fab)
heavy: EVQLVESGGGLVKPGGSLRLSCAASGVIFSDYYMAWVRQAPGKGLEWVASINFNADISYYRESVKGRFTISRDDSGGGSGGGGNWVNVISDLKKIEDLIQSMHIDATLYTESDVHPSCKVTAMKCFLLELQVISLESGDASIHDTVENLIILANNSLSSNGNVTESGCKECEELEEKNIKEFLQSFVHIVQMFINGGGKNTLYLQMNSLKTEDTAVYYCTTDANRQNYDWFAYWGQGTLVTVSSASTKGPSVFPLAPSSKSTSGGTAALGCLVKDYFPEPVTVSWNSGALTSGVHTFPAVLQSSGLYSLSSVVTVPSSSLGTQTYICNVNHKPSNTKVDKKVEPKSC
light: AIQLTQSPSSLSASVGDRVTITCKASESVSSSMYSYMHWYQQKPGKAPKLLIYRASNLESGVPSRFSGSGSGTDFTLTISSLQPEDFATYYCQQSWTAPRTFGQGTKVEIKRTVAAPSVFIFPPSDEQLKSGTASVVCLLNNFYPREAKVQWKVDNALQSGNSQESVTEQDSKDSTYSLSSTLTLSKADYEKHKVYACEVTHQGLSSPVTKSFNRGEC
notes: also called CA497/IL-15 antibody fusion protein

The next lines start with the binder.

B1: CA240/IL-15Fwk3 (anti-IL-6 CA240 Fab with human IL-15 inserted into framework 3 of the VH domain) (Fab)
heavy: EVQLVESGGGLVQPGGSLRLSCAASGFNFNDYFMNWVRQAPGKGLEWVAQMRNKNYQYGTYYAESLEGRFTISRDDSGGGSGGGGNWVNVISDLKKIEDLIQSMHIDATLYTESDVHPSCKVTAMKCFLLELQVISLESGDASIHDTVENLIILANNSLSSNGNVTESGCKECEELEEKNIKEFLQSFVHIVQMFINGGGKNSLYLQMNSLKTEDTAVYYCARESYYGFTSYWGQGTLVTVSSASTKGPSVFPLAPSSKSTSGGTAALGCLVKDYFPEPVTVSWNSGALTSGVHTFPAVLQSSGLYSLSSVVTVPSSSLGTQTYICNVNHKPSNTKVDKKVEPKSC
light: DIQMTQSPSSLSASVGDRVTITCQASQDIGISLSWYQQKPGKAPKLLIYNANNLADGVPSRFSGSGSGTDFTLTISSLQPEDFATYYCLQHNSAPYTFGQGTKLEIKRTVAAPSVFIFPPSDEQLKSGTASVVCLLNNFYPREAKVQWKVDNALQSGNSQESVTEQDSKDSTYSLSSTLTLSKADYEKHKVYACEVTHQGLSSPVTKSFNRGEC
notes: also called CA240/IL-15 antibody fusion protein
- binding result [1]: binds

B2: CA645/IL-15Fwk3 (CA645 Fab with human IL-15 inserted into framework 3 of the VH domain, original linkers) (Fab)
heavy: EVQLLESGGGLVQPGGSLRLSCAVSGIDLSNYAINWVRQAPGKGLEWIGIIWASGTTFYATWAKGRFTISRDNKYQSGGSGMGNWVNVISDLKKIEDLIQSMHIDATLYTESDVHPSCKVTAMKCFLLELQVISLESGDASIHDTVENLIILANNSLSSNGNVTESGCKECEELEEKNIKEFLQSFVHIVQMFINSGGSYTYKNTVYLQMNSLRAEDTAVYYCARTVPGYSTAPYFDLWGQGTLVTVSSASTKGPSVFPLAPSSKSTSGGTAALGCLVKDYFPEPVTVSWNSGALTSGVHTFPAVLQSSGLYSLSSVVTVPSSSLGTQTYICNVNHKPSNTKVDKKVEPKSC
light: B4 light
notes: Tested as HEK293 supernatant diluted 1 in 5, captured on anti-human F(ab)2; also called CA645/IL-15 antibody fusion protein
- binding result [2]: binds
- binding result [3]: binds
- binding result [4]: binds

B3: CA645/IL-2Fwk3 (CA645 Fab with human IL-2 inserted into framework 3 of the VH domain) (Fab)
heavy: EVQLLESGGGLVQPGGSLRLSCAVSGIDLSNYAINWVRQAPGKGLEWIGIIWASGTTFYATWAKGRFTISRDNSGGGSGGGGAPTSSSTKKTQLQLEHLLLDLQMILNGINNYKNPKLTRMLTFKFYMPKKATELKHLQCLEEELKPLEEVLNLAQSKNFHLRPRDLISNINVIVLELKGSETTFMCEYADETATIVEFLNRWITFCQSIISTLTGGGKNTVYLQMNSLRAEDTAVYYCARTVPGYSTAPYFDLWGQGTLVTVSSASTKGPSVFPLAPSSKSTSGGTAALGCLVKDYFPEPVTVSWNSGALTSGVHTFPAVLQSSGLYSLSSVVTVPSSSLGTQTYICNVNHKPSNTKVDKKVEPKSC
light: B4 light
notes: also called CA645/IL-2 antibody fusion protein
- binding result [5]: binds
